The values below are quoted from earlier work in PMC3909715.

Where two headings read alike, the source gives them in different places.

Data set [1] deals with T1, Cys34 (UniProt position 58, QYLQQCPFEDH). To be noted: reduced thiol (HSA-SH); ligand state not stated.
Data set [2] addresses T1, Cys34. The data set can be described thus: kinetics. To be noted: reduced thiol.
Data set [3] addresses T1, Cys34. Nature of the data set: chemical modification. To be noted: reduced thiol; ligand state not stated.

As for “Human serum albumin (HSA) (Homo sapiens)”, the pKa in the data set with Cys34 [1] is on record as less than 7; in the data set with Cys34 [2] (ligand-free (fatty acid-free) HSA) it was 7.9±0.1; with Cys34 [2] (ligand state not stated), “about 8”; in the data set with Cys34 [3] it was “about 8”.
